Results reported in patent US20240002531A1 (ONO PHARMACEUTICAL, published 2024).
Like-named read-outs stand apart in the source and are kept apart here. Blank lines part the entries; values can stand above or below the binder they belong to.

Legend:
Experiment in all cases: peptide ELISA, OD 655 nm
[1] = molecular target: T1, W614A peptide (HER2 603-622 with W614A) (human)
T1 peptide: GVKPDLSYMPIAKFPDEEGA

[2] = molecular target: T2, HER2_604-622C peptide (NH2-VKPDLSYMPIWKFPDEEGAC-COOH) (human)
T2 construct: KLH was added for immunisation, the peptide itself was coated in the screening ELISA
T2 peptide: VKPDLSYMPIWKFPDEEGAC

[3] = molecular target: T3, G603A peptide (HER2 603-622 with G603A) (human)
T3 peptide: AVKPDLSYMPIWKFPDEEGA

[4] = molecular target: T4, HER2 peptide p603-622 (amino acids 603 to 622 of human HER2) (human)
T4 construct: Synthetic peptide; also called wild-type HER2 peptide
T4 peptide: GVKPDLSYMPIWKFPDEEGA

[5] = molecular target: T5, F616A peptide (HER2 603-622 with F616A) (human)
T5 peptide: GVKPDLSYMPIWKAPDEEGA

[6] = molecular target: T6, E619A peptide (HER2 603-622 with E619A) (human)
T6 peptide: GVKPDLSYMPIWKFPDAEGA

[7] = molecular target: T7, K605A peptide (HER2 603-622 with K605A) (human)
T7 peptide: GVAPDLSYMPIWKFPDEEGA

[8] = molecular target: T8, V604A peptide (HER2 603-622 with V604A) (human)
T8 peptide: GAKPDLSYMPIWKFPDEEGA

[9] = molecular target: T9, I613A peptide (HER2 603-622 with I613A) (human)
T9 construct: also called 1613A
T9 peptide: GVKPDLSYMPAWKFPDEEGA

[10] = molecular target: T10, L608A peptide (HER2 603-622 with L608A) (human)
T10 peptide: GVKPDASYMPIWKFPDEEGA

[11] = molecular target: T11, D607A peptide (HER2 603-622 with D607A) (human)
T11 peptide: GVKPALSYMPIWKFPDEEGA

[12] = molecular target: T12, K615A peptide (HER2 603-622 with K615A) (human)
T12 peptide: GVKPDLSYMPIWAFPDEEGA

[13] = molecular target: T13, P606A peptide (HER2 603-622 with P606A) (human)
T13 peptide: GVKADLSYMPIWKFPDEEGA

[14] = molecular target: T14, E620A peptide (HER2 603-622 with E620A) (human)
T14 peptide: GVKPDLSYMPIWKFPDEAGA

[15] = molecular target: T15, M611A peptide (HER2 603-622 with M611A) (human)
T15 peptide: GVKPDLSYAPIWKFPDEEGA

[16] = molecular target: T16, Y610A peptide (HER2 603-622 with Y610A) (human)
T16 peptide: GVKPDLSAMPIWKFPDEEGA

[17] = molecular target: T17, P617A peptide (HER2 603-622 with P617A) (human)
T17 peptide: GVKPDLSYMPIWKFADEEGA

[18] = molecular target: T18, P612A peptide (HER2 603-622 with P612A) (human)
T18 peptide: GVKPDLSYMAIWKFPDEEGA

[19] = molecular target: T19, G621A peptide (HER2 603-622 with G621A) (human)
T19 peptide: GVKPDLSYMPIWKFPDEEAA

[20] = molecular target: T20, D618A peptide (HER2 603-622 with D618A) (human)
T20 peptide: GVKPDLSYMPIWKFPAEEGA

[21] = molecular target: T21, S609A peptide (HER2 603-622 with S609A) (human)
T21 peptide: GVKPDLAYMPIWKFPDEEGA

[22] = molecular target: T1, W614A peptide (HER2 603-622 with W614A)
[23] = molecular target: T2, HER2_604-622C peptide …
[24] = molecular target: T3, G603A peptide (HER2 603-622 with G603A)
[25] = molecular target: T4, HER2 peptide p603-622 (amino acids 603 …)
[26] = molecular target: T5, F616A peptide (HER2 603-622 with F616A)
[27] = molecular target: T6, E619A peptide (HER2 603-622 with E619A)
[28] = molecular target: T7, K605A peptide (HER2 603-622 with K605A)
[29] = molecular target: T8, V604A peptide (HER2 603-622 with V604A)
[30] = molecular target: T9, I613A peptide (HER2 603-622 with I613A)
[31] = molecular target: T10, L608A peptide (HER2 603-622 with L608A)
[32] = molecular target: T11, D607A peptide (HER2 603-622 with D607A)
[33] = molecular target: T12, K615A peptide (HER2 603-622 with K615A)
[34] = molecular target: T13, P606A peptide (HER2 603-622 with P606A)
[35] = molecular target: T14, E620A peptide (HER2 603-622 with E620A)
[36] = molecular target: T15, M611A peptide (HER2 603-622 with M611A)
[37] = molecular target: T16, Y610A peptide (HER2 603-622 with Y610A)
[38] = molecular target: T17, P617A peptide (HER2 603-622 with P617A)
[39] = molecular target: T18, P612A peptide (HER2 603-622 with P612A)
[40] = molecular target: T19, G621A peptide (HER2 603-622 with G621A)
[41] = molecular target: T20, D618A peptide (HER2 603-622 with D618A)
[42] = molecular target: T21, S609A peptide (HER2 603-622 with S609A)

binding result [1]: binds
binding result [2]: binds
binding result [3]: binds
binding result [4]: binds
binding result [5]: no binding (tested: 10 ug/ml)
binding result [6]: binds
binding result [7]: binds
binding result [8]: binds
binding result [9]: binds
binding result [10]: binds
binding result [11]: binds
binding result [12]: binds
binding result [13]: binds
binding result [14]: binds
binding result [15]: binds
binding result [16]: binds
binding result [17]: binds
binding result [18]: binds
binding result [19]: binds
binding result [20]: binds
binding result [21]: binds
B1: H2Mab-299 antibody (antibody, mouse IgG1, kappa, V domains shown)
VH: EVQLVESGGGLVQPGGSLKLSCAASGFTFNIYGIFWVRQTPDKRLELVATIHSNGGRIYYPDSVKGRFTISRDNAKNTLYLQMSSLKSEDTAMYYCAREGGDYWGQGTSVTVSS
VL: DIVMTQSHKVMATSVGDRVSITCKASQDVGTAVAWYQQKPGQSPKLLIYWASTRHTGVPDRFTGSGSGTDFTLTINNVLSEDLVDYFCQQYRRYPLTFGAGTKLELKR

binding result [22]: binds
binding result [23]: binds
binding result [24]: binds
binding result [25]: binds
binding result [26]: binds
binding result [27]: binds
binding result [28]: binds
binding result [29]: binds
binding result [30]: binds
binding result [31]: binds
binding result [32]: binds
binding result [33]: binds
binding result [34]: binds
binding result [35]: binds
binding result [36]: binds
binding result [37]: binds
binding result [38]: binds
binding result [39]: binds
binding result [40]: binds
binding result [41]: binds
binding result [42]: binds
B2: H2Mab-291 antibody (antibody, mouse IgG3, V domains shown)
VH: EVQLQQSGPELVKPGASMKISCKASGYSFTGYTMNWVKQSHGKNLEWIGLINPYNGNTRYNQKFQDKATLTVDRSSSTAYMELLSLTSEDSAVYYCVKEPSDYWGQGTTLTVSS
VL: DVVMTQTPLSLPVSLGDQASISCRSSQSLVHINGNTYLHWYLQKPGQSPKLLIYKVSKRFSGVPDRFSGSGSGTDFTLKISRVEAADLGVYFCSQSTHVPPTFGGGTKLEIKR

binding result [22]: no binding (tested: 10 ug/ml)
binding result [23]: binds
binding result [24]: binds
binding result [25]: binds
binding result [26]: binds
binding result [27]: binds
binding result [28]: binds
binding result [29]: binds
binding result [30]: binds
binding result [31]: binds
binding result [32]: binds
binding result [33]: binds
binding result [34]: binds
binding result [35]: binds
binding result [36]: binds
binding result [37]: binds
binding result [38]: binds
binding result [39]: binds
binding result [40]: binds
binding result [41]: binds
binding result [42]: binds
B3: H2Mab-292 antibody (antibody, mouse IgG3, V domains shown)
VH: EVQLQQSGPELVKPGASRKISCKASGYSFTGYTMNWVKKSHGKNLEWIGLINPSNGGTRYNQKFKDKATLTVDKSSSTAYMELLSLTSEDSAVYYCVKEPSDYWGQGTTLTVSS
VL: DVVMTQTPLSLPVSLGDQASISCRSSQSLVHSNGNTYLHWYLQKPGQSPKLLIYKVSNRFSGVPDRFSGRGSGTDFTLKISRVEAEDLGIYFCSQSTHVPPTFGGGTKLEIKR
